What was measured:
[1] = target: T1, rhesus monkey TfR ectodomain fused to a mouse IgG1 Fc fragment (rhesus monkey, UniProt I0FKY7 89-760); test: SPR, kinetic
T1 construct: extracellular domain; not shown: mouse IgG1 Fc fragment
How it was run: (§1)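 TfR–mouse Fc fusions, produced in-house, captured on HC 1500M or CM5 chips either directly or via immobilized anti-mouse IgG. VHHs injected in single-cycle or multiple-cycle kinetic mode on Biacore T200.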

[2] = target: T2, mouse TfR ectodomain fused to a mouse IgG1 Fc fragment (mouse, UniProt Q62351 89-763); test: SPR, kinetic
T2 construct: extracellular domain; not shown: mouse IgG1 Fc fragment
How it was run: as §1

[3] = target: T3, rhesus monkey transferrin receptor (rhTfR) fused to EGFP, on CHO cells (rhesus monkey); test: apparent Kd, flow cytometry, CHO cells
T3 construct: whole, on cells; also called rhesus monkey TfR
How it was run: (§2)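 CHO cells expressing TfR-EGFP fusions, blocked in PBS/BSA 2%, then incubated with increasing VHH concentrations for 1 hr at 4° C. Bound VHH detected via anti-6His antibody and Alexa647 secondary, cells PFA-fixed, read by flow cytometry. Apparent Kd from nonlinear fit.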

[4] = target: T4, mouse transferrin receptor (mTfR) fused to EGFP, on CHO cells (mouse, UniProt Q62351 1-763); test: apparent Kd, flow cytometry, CHO cells
T4 construct: whole, on cells; also called mouse TfR; CHO-mTfR-EGFP; not shown: EGFP
How it was run: as §2

[5] = target: T5, human transferrin receptor (hTfR) fused to EGFP, on CHO cells (human, UniProt P02786 1-760); test: apparent Kd, flow cytometry, CHO cells
T5 construct: whole, on cells; also called human TfR; CHO-hTfR-EGFP; not shown: EGFP from pEGFP-C1 vector, fused to the N-terminal (intracellular) end of hTfR
How it was run: as §2

[6] = target: T2, mouse TfR ectodomain fused to a mouse …; test: SPR, at equilibrium
How it was run: as §1

[7] = target: T6, murine TfR expressed by murine neuroblastoma Neuro-2a cells (mouse, UniProt Q62351 1-763); test: competition with the fluorescent reference VHH on Neuro-2a cells as in FIG. 25; Ki/app on mTfR
T6 construct: whole, on cells; also called mTfR (N2a cells)
Method: (§3) The binding of VHH-Oligo and VHH-hFc-Oligo conjugates to mTfR was evaluated using a competition assay on living cells expressing the receptor of interest, namely murine neuroblastoma Neuro-2a cells (N2a). N2a cells were grown in Dulbecco's Modified Eagle Medium (DMEM) GlutaMAX supplemented with 10% v/v FBS in 5% CO₂ at 37° C. Cells were seeded two days before experiments in 96-well plates at a density of 50.000 cells/well. […] Resuspended cells were transferred in a 96-deepwell plate (V-bottom) containing 1% fetal bovine serum (FBS)/0.02% sodium azide in phosphate-buffered saline (PBS) and then centrifuged for 5 min at 2000 rpm at 4° C. After removing the supernatant, 5 mM EDTA in D-PBS and 4% paraformaldehyde (PFA) (v/v 1:1) were added into wells to fix cells for 15 min at room temperature. PFA was removed by centrifugation (5 min, 3000 rpm, 4° C.) and cells were resuspended with 5 mM EDTA in D-PBS. Then the cellular A680-associated fluorescence signal was quantified using an Attune™ NxT flow cytometer (Thermo Fisher Scientific) equipped with Attune™ NxT v3.1.2. Experimental data (experimental triplicates) were fitted with GraphPad Prism® software using a nonlinear fit to determine the apparent Ki inhibition constants.

[8] = target: T7, human TfR ectodomain fused to a mouse IgG1 Fc fragment (human, UniProt P02786 89-760); test: SPR, kinetic
T7 construct: extracellular domain; ectodomain fused to the N-terminal end of the Fc, made in-house; not shown: mouse IgG1 Fc fragment
How it was run: as §1

[9] = target: T6, murine TfR expressed by murine …; test: competition with the fluorescent reference VHH on Neuro-2a cells as in FIG. 25; Ki/app on mTfR, free VHH
Method: as §3

T7 sequence (P02786 89-760): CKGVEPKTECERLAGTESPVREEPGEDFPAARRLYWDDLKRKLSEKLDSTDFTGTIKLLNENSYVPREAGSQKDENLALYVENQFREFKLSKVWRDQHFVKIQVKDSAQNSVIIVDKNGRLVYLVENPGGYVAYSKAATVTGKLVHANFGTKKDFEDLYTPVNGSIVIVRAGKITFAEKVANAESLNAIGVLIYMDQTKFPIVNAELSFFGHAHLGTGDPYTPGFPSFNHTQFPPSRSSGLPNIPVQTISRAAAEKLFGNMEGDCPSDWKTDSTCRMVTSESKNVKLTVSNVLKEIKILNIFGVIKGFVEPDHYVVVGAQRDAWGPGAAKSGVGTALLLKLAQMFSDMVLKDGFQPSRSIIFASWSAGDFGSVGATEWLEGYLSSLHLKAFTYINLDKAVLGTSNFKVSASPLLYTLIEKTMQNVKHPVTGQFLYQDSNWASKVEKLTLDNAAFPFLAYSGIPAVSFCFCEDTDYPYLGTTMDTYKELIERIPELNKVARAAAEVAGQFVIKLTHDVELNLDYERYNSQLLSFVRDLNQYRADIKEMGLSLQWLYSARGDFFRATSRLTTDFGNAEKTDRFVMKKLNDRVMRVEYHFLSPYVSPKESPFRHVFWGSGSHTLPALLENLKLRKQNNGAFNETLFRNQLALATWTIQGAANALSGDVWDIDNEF
T4 sequence (Q62351 whole entry, the tested form may be a part): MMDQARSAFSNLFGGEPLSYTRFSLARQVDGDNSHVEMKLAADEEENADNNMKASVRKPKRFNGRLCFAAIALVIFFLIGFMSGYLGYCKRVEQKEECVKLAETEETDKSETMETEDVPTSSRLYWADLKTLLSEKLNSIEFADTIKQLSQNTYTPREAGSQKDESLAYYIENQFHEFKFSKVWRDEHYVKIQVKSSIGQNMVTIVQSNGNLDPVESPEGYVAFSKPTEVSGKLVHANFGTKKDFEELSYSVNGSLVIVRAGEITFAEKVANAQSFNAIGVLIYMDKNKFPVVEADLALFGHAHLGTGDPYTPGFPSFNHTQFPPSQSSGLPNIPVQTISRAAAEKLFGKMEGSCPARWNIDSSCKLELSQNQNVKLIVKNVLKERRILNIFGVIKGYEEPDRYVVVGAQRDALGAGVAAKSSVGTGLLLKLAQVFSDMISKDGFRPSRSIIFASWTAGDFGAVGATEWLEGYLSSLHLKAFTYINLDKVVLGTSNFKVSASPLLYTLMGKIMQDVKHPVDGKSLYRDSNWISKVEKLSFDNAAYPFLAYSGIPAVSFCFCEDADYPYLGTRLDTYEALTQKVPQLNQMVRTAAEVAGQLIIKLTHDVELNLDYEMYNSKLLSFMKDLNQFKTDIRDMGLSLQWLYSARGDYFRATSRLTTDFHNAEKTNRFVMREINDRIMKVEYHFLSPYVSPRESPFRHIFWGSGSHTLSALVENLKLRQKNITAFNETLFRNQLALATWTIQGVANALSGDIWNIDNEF
T6 sequence (Q62351 whole entry): as the sequence (Q62351 whole entry, the tested form may be a part) above
T5 sequence (P02786 whole entry, the tested form may be a part): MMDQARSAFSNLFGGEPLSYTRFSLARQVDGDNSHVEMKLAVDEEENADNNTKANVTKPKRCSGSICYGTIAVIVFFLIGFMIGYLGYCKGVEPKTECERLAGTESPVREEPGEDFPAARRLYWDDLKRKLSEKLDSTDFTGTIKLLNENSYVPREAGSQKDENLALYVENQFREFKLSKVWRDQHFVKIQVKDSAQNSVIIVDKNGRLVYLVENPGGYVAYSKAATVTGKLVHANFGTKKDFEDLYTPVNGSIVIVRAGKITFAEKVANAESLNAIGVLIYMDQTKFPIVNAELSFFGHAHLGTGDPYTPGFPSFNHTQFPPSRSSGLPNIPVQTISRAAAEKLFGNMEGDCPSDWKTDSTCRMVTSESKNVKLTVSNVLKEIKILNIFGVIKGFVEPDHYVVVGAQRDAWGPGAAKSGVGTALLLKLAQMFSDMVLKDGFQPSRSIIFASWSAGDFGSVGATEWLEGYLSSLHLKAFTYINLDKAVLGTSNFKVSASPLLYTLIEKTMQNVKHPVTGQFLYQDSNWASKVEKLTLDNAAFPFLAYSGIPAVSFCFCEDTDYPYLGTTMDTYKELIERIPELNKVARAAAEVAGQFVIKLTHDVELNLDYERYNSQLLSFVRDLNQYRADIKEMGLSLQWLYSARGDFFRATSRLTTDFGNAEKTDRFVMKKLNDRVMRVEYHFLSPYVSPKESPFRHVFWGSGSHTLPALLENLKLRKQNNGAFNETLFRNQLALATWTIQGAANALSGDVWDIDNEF
T2 sequence (Q62351 89-763): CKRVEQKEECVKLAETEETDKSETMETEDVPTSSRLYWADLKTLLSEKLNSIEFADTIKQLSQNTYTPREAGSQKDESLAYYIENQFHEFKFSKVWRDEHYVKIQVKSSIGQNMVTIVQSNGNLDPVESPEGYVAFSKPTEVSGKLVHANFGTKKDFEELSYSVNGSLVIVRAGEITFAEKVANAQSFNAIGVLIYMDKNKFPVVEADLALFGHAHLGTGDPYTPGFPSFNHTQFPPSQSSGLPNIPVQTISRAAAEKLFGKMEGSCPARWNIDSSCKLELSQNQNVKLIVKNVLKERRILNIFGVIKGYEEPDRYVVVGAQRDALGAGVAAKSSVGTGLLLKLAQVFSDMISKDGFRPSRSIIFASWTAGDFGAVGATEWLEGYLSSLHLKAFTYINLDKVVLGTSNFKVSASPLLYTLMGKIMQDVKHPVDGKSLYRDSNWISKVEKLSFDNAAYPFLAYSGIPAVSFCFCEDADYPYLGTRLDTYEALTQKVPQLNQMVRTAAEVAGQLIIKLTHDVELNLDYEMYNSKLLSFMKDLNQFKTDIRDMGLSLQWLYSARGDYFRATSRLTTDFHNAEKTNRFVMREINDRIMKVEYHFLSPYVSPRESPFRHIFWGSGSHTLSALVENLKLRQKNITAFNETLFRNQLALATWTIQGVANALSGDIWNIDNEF

Kd [1] [nM]	koff [1] [s⁻¹]	kon [1] [M⁻¹ s⁻¹]	Kd [2] [nM]	koff [2] [s⁻¹]	kon [2] [M⁻¹ s⁻¹]	Kd [3] [nM]	Kd [4] [nM]	Kd [5] [nM]	Kd [6] [nM]	Ki [7] [nM]	Kd [8] [nM]	koff [8] [s⁻¹]	kon [8] [M⁻¹ s⁻¹]	Ki [9] [nM]	Binder
			70.6	0.0563	797000	10	207	3.7	61.1		0.252	0.000176	700000		VHH A15 (C5^V15) (VHH) VHH: EVQLVESGGGVVQPGGSLKLSCVASGTDFSINFIRWYRQAPGKQREFVAGFTATGNTNYADSMKGRFTISRDNTKNAVYLQIDSLKPEDTAVYYCFMLDKWGQGTQVTVSS
			244	0.12	546000	13	259	3.2	228		0.876	0.000487	555000	834	VHH A1 (C5^V1) (VHH) VHH: EVQLVESGGGVVQPGGSLKLSCVASGADFSINFIRWYRQAPGKQREFVAGFTATGNTNYADSMKGRFTISRDNTKNAVYLQIDSLKPEDTAVYYCYMLDKWGQGTQVTVSS
			61.3	0.0218	355000	20	197	3.4	74.7		0.395	0.000311	790000		VHH A11 (C5^V11) (VHH) VHH: EVQLVESGGGVVQPGGSLKLSCVASGTDFSINYIRWYRQAPGKQREFVAGFTATGNTNYADSMKGRFTISRDNTKNAVYLQIDSLKPEDTAVYYCYMLDKWGQGTQVTVSS
			109	0.0579	583000	5.7	136	3.2	108						VHH A2 (C5^V2) (VHH) VHH: EVQLVESGGGVVQPGGSLKLSCVASGTAFSINFIRWYRQAPGKQREFVAGFTATGNTNYADSMKGRFTISRDNTKNAVYLQIDSLKPEDTAVYYCYMLDKWGQGTQVTVSS

The remaining lines, values behind:

Binder	Kd [1] [nM]	koff [1] [s⁻¹]	kon [1] [M⁻¹ s⁻¹]	Kd [2] [nM]	koff [2] [s⁻¹]	kon [2] [M⁻¹ s⁻¹]	Kd [3] [nM]	Kd [4] [nM]	Kd [5] [nM]	Kd [6] [nM]	Ki [7] [nM]	Kd [8] [nM]	koff [8] [s⁻¹]	kon [8] [M⁻¹ s⁻¹]	Ki [9] [nM]
C5^V27 (VHH) VHH: EVQLVESGGGVVQPGGSLKLSCVASGADFSINYIRWYRQAPGKQREFVAGFTATGNTNYADSMKGRFTISRDNTKNAVYLQIDSLKPEDTAVYYCYMLDKWGQGTQVTVSS	83.9	0.0278	332000	207	0.102	493000	178	197	3.1	379					
C5-ΔHis-siSOD1m (VHH, conjugated to the siSOD1m siRNA duplex through a linker; site and tag not given for this conjugate ; Conjugated at a C-terminal tag (not given) through a linker to the chemically modified siSOD1m duplex (SEQ ID NOs 465/466)., Member of the group m173; also called VHH-deltaHis-siSOD1m wherein VHH is C5; not shown: The C-terminal conjugation tag of the 'ΔHis' form, which the text never defines) VHH: EVQLVESGGGVVQPGGSLKLSCVASGTDFSINFIRWYRQAPGKQREFVAGFTATGNTNYADSMKGRFTISRDNTKNAVYLQIDSLKPEDTAVYYCYMLDKWGQGTQVTVSS											137				
C5-Thiol-Mal-siSOD1m (VHH, chain 1 pos 117: free Cys of the tag coupled by thiol-maleimide chemistry to the maleimide-functionalised siSOD1m duplex (SEQ ID NOs 465/466), written C, Member of the group m173; also called VHH-thiol-Mal-siSOD1m wherein VHH is C5) VHH: EVQLVESGGGVVQPGGSLKLSCVASGTDFSINFIRWYRQAPGKQREFVAGFTATGNTNYADSMKGRFTISRDNTKNAVYLQIDSLKPEDTAVYYCYMLDKWGQGTQVTVSS											164				
C5-siSOD1m (VHH, chain 1 pos 125: Gln of the LQR Q-tag carrying the transglutaminase-installed azido linker clicked to the 3' end of the sense strand of the chemically modified siSOD1m duplex (SEQ ID NOs 465/466, no 5'VP), written Q, Member of the group m173; siRNA without 5'VP, so not the same as m166) VHH: EVQLVESGGGVVQPGGSLKLSCVASGTDFSINFIRWYRQAPGKQREFVAGFTATGNTNYADSMKGRFTISRDNTKNAVYLQIDSLKPEDTAVYYCYMLDKWGQGTQVTVSS											161				
C5h18-siSOD1m (VHH, conjugated to the siSOD1m siRNA duplex through a linker; site and tag not given for this conjugate ; VHH conjugated through a C-terminal tag and a stable click linker to the 3' end of the sense strand of the siSOD1m siRNA duplex (SEQ ID NO 465/466). The letters cannot carry this., Member of the group m173; not shown: C-terminal tag/linker that carries the siRNA) VHH: EVQLVESGGGVVQPGGSLKLSCVASGTDFSINFIRWYRQAPGKGLEFVAGFTATGNTNYADSVKGRFTISRDNAKNTLYLQMNSLRPEDTAVYYCYMLDKWGQGTQVTVSS											1070				
C5V7-siSOD1m (VHH, conjugated to the siSOD1m siRNA duplex through a linker; site and tag not given for this conjugate ; VHH conjugated through a C-terminal tag and a stable click linker to the 3' end of the sense strand of the siSOD1m siRNA duplex (SEQ ID NO 465/466). The letters cannot carry this., Member of the group m173; not shown: C-terminal tag/linker that carries the siRNA) VHH: EVQLVESGGGVVQPGGSLKLSCVASGTDFSINFIRWYRQAPGKQREFVAGFTATGNTNYADSMKGRFTISRDNTKNAVYLQIDSLKPEDTAVYYCYMADKWGQGTQVTVSS											10100				
